Measurements reported in US20190161555A1 (ALLIGATOR BIOSCIENCE, published 2019).

Assays:
cynomolgus 5T4 = molecular target: T1, cynomolgus 5T4 (Macaca mulatta (cynomolgus)); assay: flow cytometry, CHO cells with cynomolgus 5T4 against CHO cells with human 5T4
T1 construct: whole, on cells; stably transfected CHO cells; also called cyno5T4; cy5T4
Protocol: The potency of 5T4 antibodies in binding to cynomolgus 5T4 was determined by flow cytometry. CHO cells were stably transfected with […] (cynomolgus) 5T4. […] Samples were analysed either on a FACSCalibur or a FACSverse (BD Biosciences, Heidelberg, Germany) and mean fluorescence intensity (MFI) determined. […] To compare the EC50 values between human and cynomolgus 5T4, the cy5T4/hu5T4 ratio was calculated from the experiment with the full dose-response.

[1] = molecular target: T2, 5T4 (immobilised for SPR) (UniProt Q13641 32-355, limits assumed, biotinylated on the MASS-1 platform); assay: SPR Biacore 3000, 5T4 amine-coupled, mAb injected, 1:1 Langmuir
T2 construct: also called biotinylated 5T4
T2 sequence (looked up): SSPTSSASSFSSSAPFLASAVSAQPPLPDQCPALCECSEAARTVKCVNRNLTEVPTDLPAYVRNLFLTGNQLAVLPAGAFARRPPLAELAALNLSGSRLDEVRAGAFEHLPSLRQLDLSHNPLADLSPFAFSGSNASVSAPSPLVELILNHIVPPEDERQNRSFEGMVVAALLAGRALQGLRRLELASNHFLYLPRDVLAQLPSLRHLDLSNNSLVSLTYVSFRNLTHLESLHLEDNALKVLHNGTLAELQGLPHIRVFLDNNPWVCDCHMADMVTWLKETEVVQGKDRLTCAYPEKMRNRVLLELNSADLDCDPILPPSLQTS
Protocol: (§1) Binding kinetics of the 5T4-specific mAbs have been studied using two different SPR-based platforms, the Biacore 3000 (GE Healthcare) and the MASS-1 platform (Sierra Sensors). Briefly, 5T4 was captured at the sensor chip surface either via direct amine coupling (Biacore platform) or using a streptavidin coated chip and biotinylated 5T4 (MASS-1 platform). The different 5T4-specific mAbs were then injected over the chip in increasing concentrations and the association and dissociation rates studied in real time. A 1:1 Langmuir model was used for curve fitting.

[2] = molecular target: T3, human 5T4 on transfected cells (human, UniProt Q13641 32-420); assay: flow cytometry, 5T4-transfected B16 cells
T3 construct: whole, on cells; for B16 and A9 cells only a 5T4 construct is named; also called 5T4-transfected B16 cells; B16-5T4
T3 sequence (looked up): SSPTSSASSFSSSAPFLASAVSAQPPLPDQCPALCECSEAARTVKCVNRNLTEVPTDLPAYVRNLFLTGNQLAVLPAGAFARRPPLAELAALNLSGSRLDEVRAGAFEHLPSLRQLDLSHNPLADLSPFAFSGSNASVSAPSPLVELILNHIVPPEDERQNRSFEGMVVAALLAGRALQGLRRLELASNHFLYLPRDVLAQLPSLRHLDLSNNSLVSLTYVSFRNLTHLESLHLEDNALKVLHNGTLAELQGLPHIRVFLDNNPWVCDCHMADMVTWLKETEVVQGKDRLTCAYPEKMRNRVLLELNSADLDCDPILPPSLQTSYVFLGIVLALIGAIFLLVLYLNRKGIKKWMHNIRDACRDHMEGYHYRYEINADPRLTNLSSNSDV
Protocol: (§2) Analysis of 5T4 mAb binding with flow cytometry was performed using 5T4-transfected cell lines and as negative control, mock transfected cells. Three different transfected cell lines used were used for this study; B16, A9 and CHO, transfected either with a 5T4 construct or with an empty vector control construct. Cells were stained with 5T4 antibodies diluted in FACS buffer (PBS, 0.5% BSA and 0.02% NaN₃). […] Samples were analysed either on a FACSCalibur or a FACSverse (BD Biosciences, Heidelberg, Germany) and mean fluorescence intensity (MFI) determined.

5T4-Fc = molecular target: T4, 5T4-Fc (human, UniProt Q13641 32-355, limits assumed); assay: ELISA, plates coated with 5T4-Fc
T4 construct: obtained from Peter L. Stern, University of Manchester; also called h5T4-Fc; recombinant 5T4
T4 sequence (looked up): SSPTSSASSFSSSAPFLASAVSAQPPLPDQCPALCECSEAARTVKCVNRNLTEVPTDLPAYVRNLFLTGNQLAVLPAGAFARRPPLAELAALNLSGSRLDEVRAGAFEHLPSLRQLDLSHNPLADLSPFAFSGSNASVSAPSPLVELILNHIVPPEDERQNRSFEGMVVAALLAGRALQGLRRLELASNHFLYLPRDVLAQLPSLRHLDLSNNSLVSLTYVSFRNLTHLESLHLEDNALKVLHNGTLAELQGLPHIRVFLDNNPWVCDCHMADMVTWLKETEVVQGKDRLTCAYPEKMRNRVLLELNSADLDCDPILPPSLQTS
Protocol: ELISA was performed using a standard protocol. Plates (#655074, Greiner Bio-One GmbH, Germany) were pre-coated with 0.5 μg/ml 5T4-Fc (obtained from Peter L. Stern, University of Manchester) overnight. 5T4 antibodies were diluted from 6 to 1.5×10⁻³ μg/ml in 1:4 dilutions and added in duplicates of 50 μl to each well. Binding was detected with rabbit anti-h kappa L-chain-HRP (P0129, Dako Denmark) and the ELISA was developed with SuperSignal ELISA PICO Chemiluminescent substrate (Thermo Scientific Pierce, Rockford, Ill. USA) for 2-10 minutes and read in an automated microplate based multi-detection reader (FLUOstar OPTIMA, Netherlands).

[3] = molecular target: T2, 5T4 (immobilised for SPR); assay: SPR MASS-1, biotinylated 5T4 on streptavidin chip, mAb injected, 1:1 Langmuir
Protocol: as §1

[4] = molecular target: T3, human 5T4 on transfected cells; assay: flow cytometry, 5T4-transfected A9 cells
Protocol: as §2

mouse 5T4 = molecular target: T5, mouse 5T4 (mouse, UniProt Q9Z0L0 32-426); assay: flow cytometry, mouse 5T4-transfected cells
T5 construct: whole, on cells; also called murine 5T4
T5 sequence (looked up): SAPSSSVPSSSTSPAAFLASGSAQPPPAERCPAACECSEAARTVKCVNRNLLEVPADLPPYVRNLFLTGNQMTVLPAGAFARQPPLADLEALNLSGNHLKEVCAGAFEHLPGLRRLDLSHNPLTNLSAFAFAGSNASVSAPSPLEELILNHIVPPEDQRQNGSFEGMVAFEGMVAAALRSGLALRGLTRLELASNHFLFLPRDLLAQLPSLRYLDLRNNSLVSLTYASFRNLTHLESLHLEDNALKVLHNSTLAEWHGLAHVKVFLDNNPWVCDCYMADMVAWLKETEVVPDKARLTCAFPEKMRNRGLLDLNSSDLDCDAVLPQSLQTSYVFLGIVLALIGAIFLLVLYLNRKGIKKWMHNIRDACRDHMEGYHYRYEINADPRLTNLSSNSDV

Binder	Ratio EC50cyno-5T4/h5T4 (cynomolgus 5T4) [ratio]	Kd [1] [nM]	koff [1] [s⁻¹]	kon [1] [M⁻¹ s⁻¹]	EC50 [2] [nM]	Normalized EC50 (to 1628) [2]	EC50 (5T4-Fc) [nM]	koff [3] [s⁻¹]	kon [3] [M⁻¹ s⁻¹]	Normalized EC50 (to 1628) [4]	binding result (mouse 5T4)
1210/1211 (antibody, IgG1, V domains shown, 5T4 antibody) VH: not shown VL: DIQMTQSPSSLSASVGDRVTITCRASQSISSYLNWYQQKPGKAPKLLIYAASSLQSGVPSRFSGSGSGTDFTLTISSLQPEDFATYYCQQTYGYLHTFGQGTKLEIK	0.9	0.2	0.0001	500000	0.8	1.6 ratio to 1628	0.48	0.00019	510000	1.8 ratio to 1628	no binding
1206/1207 (antibody, V domains shown, 5T4 antibody) VH: EVQLLESGGGLVQPGGSLRLSCAASGFTFSGSSMSWVRQAPGKGLEWVSSIYYSGSGTYYADSVKGRFTISRDNSKNTLYLQMNSLRAEDTAVYYCARYGRNVHPYNLDYWGQGTLVTVSS VL: DIQMTQSPSSLSASVGDRVTITCRASQSISSYLNWYQQKPGKAPKLLIYAASSLQSGVPSRFSGSGSGTDFTLTISSLQPEDFATYYCQQGYYYLPTFGQGTKLEIK	3	2.3	0.00028	130000	1.8	3.9 ratio to 1628	0.64	0.00013	1.4e+06	2.9 ratio to 1628	no binding
